Measured values published in article PMC2171315 (The Journal of Cell Biology, 2005).

Target: GST-Nup2p (S. cerevisiae, UniProt P32499 1-720)
Assay: pull-down

GST-Nup2p, sequence (P32499 whole entry): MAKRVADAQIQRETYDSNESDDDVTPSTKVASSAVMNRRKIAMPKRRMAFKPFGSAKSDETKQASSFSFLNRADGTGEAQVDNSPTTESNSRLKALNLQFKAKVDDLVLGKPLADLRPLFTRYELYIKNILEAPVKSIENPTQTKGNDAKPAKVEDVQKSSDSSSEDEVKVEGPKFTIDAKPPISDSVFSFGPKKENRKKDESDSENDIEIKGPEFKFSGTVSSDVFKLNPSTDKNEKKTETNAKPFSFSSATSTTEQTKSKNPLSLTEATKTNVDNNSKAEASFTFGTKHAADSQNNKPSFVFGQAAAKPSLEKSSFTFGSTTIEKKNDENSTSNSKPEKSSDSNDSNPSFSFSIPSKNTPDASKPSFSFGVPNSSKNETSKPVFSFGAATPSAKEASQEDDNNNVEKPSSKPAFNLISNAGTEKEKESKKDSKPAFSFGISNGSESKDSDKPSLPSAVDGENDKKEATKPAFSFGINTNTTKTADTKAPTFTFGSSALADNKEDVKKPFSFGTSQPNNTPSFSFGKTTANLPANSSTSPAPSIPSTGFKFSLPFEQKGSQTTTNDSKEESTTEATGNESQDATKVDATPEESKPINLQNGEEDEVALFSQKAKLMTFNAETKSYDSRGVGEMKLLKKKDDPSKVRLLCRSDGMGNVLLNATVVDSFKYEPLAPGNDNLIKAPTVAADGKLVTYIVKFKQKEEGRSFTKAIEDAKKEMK

B1: Bacterially expressed and purified Prp20p (natural protein)
chain: MVKRTVATNGDASGAHRAKKMSKTHASHIINAQEDYKHMYLSVQPLDIFCWGTGSMCELGLGPLAKNKEVKRPRLNPFLPRDEAKIISFAVGGMHTLALDEESNVWSWGCNDVGALGRDTSNAKEQLKDMDADDSSDDEDGDLNELESTPAKIPRESFPPLAEGHKVVQLAATDNMSCALFSNGEVYAWGTFRCNEGILGFYQDKIKIQKTPWKVPTFSKYNIVQLAPGKDHILFLDEEGMVFAWGNGQQNQLGRKVMERFRLKTLDPRPFGLRHVKYIASGENHCFALTKDNKLVSWGLNQFGQCGVSEDVEDGALVTKPKRLALPDNVVIRSIAAGEHHSLILSQDGDLYSCGRLDMFEVGIPKDNLPEYTYKDVHGKARAVPLPTKLNNVPKFKSVAAGSHHSVAVAQNGIAYSWGFGETYAVGLGPFEDDTEVPTRIKNTATQDHNIILVGCGGQFSVSGGVKLSDEDAEKRADEMDD
B1: binds.
